Patent US20190185574A1 (COMMISSARIAT L NERGIE ATOMIQUE ET AUX NERGIES ALTERNATIVES, published 2019)
Residue numbers refer to the chain shown, from its start.

T1: peptide C6 of the ETB-R Pep-scan membrane (human)
T1 construct: Residues are inferred as for C5, from the one-residue offset and C11 = 71-82
T1 peptide: LAPAEVPKGDRT

T2: peptide C9 of the ETB-R Pep-scan membrane (human)
T2 construct: Residues are inferred as for C5, from the one-residue offset and C11 = 71-82
T2 peptide: AEVPKGDRTAGS

T3: peptide C5 of the ETB-R Pep-scan membrane (human)
T3 construct: The peptides are 12-mers offset by one residue, C11 is stated to be 71-82, and C5-C10 share 70-76
T3 peptide: SLAPAEVPKGDR

T4: peptide C8 of the ETB-R Pep-scan membrane (human)
T4 construct: Residues are inferred as for C5, from the one-residue offset and C11 = 71-82
T4 peptide: PAEVPKGDRTAG

T5: peptide C7 of the ETB-R Pep-scan membrane (human)
T5 construct: Residues are inferred as for C5, from the one-residue offset and C11 = 71-82
T5 peptide: APAEVPKGDRTA

T6: peptide C10 of the ETB-R Pep-scan membrane (human)
T6 construct: Residues are inferred as for C5, from the one-residue offset and C11 = 71-82
T6 peptide: EVPKGDRTAGSP

T7: human endothelin receptor sub-type B (human, UniProt P24530 27-442)
T7 construct: no signal peptide limits are stated; also called ETB-R; ETBR
T7 sequence: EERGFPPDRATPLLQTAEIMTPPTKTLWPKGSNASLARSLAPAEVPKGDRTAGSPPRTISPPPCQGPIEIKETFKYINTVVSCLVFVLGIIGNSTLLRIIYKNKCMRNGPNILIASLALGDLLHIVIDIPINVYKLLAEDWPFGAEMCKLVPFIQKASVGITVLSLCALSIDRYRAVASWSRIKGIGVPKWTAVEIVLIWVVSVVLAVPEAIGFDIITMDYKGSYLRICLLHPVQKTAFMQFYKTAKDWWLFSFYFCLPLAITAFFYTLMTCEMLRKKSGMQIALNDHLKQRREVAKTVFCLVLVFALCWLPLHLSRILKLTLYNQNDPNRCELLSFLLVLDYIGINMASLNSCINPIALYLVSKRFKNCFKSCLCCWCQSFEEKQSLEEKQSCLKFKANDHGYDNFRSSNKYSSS

B1: Rendomab-B49 (antibody, IgG1, V domains shown)
VH: QVQLQQPGAALVKPGASVKLSCKASGYTFISYWMLWVKQRPGRGLEWIGRIDPDSGGTKYNEKFKSKATLTVDKSSSTAYMQLSSLTSEDSAVYYCAREGDYAWFAYWGQGTLVPVSA
VL: DVLMTQTPLSLPVSLGDQASISCRSSQSIVHSNGNTYLEWYLQKPGQSPKLLIYKVSNRFSGVPDRFSGSGSGTDFTLKISRVEAEDLGVYYCFQGSHVPWTFGGGTKLEIK
notes: Murine monoclonal IgG1/kappa purified from ascites; also called hybridoma CNCM I-5084
B2: Rendomab-B41 (antibody, IgG1, V domains shown)
VH: QVQLQQPGAELVKPGASVKLSCKASGYTFTSYWMHWVKQRPGRGLEWIGRIDPDSGGTKYNEKFKSKATLTVDKPSNTANMQLSSLTSEDSAVYYCVREGWDAWFVYWGQGTLLTVSA
VL: DVLMTQTPLSLPVSLGDQASISCRSSQSIVHSNGNTYLEWYLQKPGQSPKLLIYKVFNRFSGVPDRFSGSGSGTDFTLKISRVEAEDLGVYYCFQGSHVPLTFGAGTKLELKR
notes: Murine monoclonal IgG1/kappa purified from ascites; also called hybridoma CNCM I-5104
B3: Rendomab-B36 (antibody, IgG3, V domains shown)
VH: QVQLQQPGAELVKPGASVKLSCKASGYTFTSYWIHWVNQRPGRGLEWIGRIDPNSGGTKYNEKFKSKATLTVDKTSSTAYMQFSSLTSEDSAVYYCAREGEFAWFAYWGQGTLVTVSA
VL: B2 VL with S28N, N35Y, F57S, A105S, L111I
notes: Murine monoclonal IgG3/kappa purified from ascites; also called hybridoma CNCM I-5103

What was measured:
[1] = target: T1, peptide C6 of the ETB-R Pep-scan …; test: Pep-scan peptide membrane, 1 µg/ml antibody, chemiluminescent detection
[2] = target: T2, peptide C9 of the ETB-R Pep-scan …; test: as above
[3] = target: T3, peptide C5 of the ETB-R Pep-scan …; test: as above
[4] = target: T4, peptide C8 of the ETB-R Pep-scan …; test: as above
[5] = target: T5, peptide C7 of the ETB-R Pep-scan …; test: as above
[6] = target: T6, peptide C10 of the ETB-R Pep-scan …; test: as above
[7] = target: T7, human endothelin receptor sub-type B; test: flow cytometry on CHO-ETBR cells; apparent KD = concentration giving 50% of plateau MFI
[8] = target: T7, human endothelin receptor sub-type B; test: flow cytometry on CHO-ETBR cells pre-incubated 2 h at 37° C. with 300 nM endothelin 1 (receptor internalised)

binding result [1]	binding result [2]	binding result [3]	binding result [4]	binding result [5]	binding result [6]	Kd [7]	drop of binding after pre-incubation of the cells with 300 nM endothelin 1 [8]	Binder
binds	binds	binds	binds	binds	binds	–	–	B1
–	–	–	–	–	–	~1 nM	> 50%	B2
–	–	–	–	–	–	~1 nM	> 50%	B3
